In patent US20240182536A1 (MURAL ONCOLOGY, published 2024):
Like-named read-outs stand apart in the source and are kept apart here.

Assays:
[1] = molecular target: T1, human IL-18R alpha/beta pair (IL-18Rab) (human, UniProt Q13478 19-329; O95256 20-356); experiment: Octet BLI
T1 construct: also called hu IL-18Rab
T1 sequence (looked up) 1: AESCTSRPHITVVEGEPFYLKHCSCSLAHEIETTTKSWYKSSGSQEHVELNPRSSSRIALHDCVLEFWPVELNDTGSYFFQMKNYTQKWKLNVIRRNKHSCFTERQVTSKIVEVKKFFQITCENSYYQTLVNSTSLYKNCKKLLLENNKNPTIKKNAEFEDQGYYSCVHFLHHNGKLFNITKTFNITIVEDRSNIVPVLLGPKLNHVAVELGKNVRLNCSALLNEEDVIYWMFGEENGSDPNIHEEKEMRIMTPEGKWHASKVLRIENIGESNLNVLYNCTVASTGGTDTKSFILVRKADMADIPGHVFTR
T1 sequence (looked up) 2: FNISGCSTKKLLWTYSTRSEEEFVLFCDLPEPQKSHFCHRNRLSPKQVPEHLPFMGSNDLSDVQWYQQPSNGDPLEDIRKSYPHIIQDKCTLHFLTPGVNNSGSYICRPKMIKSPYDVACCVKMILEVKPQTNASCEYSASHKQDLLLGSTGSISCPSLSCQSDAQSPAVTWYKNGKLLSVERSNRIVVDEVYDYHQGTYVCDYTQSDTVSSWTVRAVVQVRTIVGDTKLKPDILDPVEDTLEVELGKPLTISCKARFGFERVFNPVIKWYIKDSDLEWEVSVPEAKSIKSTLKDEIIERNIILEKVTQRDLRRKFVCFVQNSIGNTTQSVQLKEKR
Method: (§1) Octet 96red instrument was used to determine affinities of IL18 proteins to BP or receptors. 5-10 ug/ml analyte proteins were used for loading on Sartorius tips (AHC or SA). […] 120-180 s loading, 200 s association and 800 s dissociation were used for kinetics. 3-7 data points were used to calculate affinities.

[2] = molecular target: T2, human IL-18 binding protein (IL-18BP) (human, UniProt O95998 31-194); experiment: Octet BLI
T2 construct: also called hu IL-18BP; hIL18BP
T2 sequence (looked up): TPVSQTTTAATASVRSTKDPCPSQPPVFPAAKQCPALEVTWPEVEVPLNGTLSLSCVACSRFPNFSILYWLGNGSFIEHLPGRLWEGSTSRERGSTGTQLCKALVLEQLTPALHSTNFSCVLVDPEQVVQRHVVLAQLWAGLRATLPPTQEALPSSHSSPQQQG
Method: as §1

[3] = molecular target: T3, human IL-18 receptor alpha (IL-18Rα) (human, UniProt Q13478 19-329, limits assumed); experiment: Octet BLI
T3 construct: also called hu IL-18Ra; IL-18R alpha
T3 sequence (looked up): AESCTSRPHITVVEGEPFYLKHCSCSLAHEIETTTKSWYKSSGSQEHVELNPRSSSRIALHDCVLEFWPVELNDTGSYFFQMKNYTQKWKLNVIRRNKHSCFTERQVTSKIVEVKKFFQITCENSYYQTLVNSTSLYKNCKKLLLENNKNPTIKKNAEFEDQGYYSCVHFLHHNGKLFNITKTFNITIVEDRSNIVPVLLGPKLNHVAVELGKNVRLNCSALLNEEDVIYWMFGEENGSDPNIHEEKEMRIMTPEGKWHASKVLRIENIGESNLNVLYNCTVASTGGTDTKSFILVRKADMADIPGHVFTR
Method: as §1

[4] = molecular target: T4, IL-18 receptors on HEK-Blue IL-18 reporter cells (InvivoGen) (UniProt Q13478 19-541; O95256 20-599); experiment: cell-based or functional assay
T4 sequence (looked up) 1: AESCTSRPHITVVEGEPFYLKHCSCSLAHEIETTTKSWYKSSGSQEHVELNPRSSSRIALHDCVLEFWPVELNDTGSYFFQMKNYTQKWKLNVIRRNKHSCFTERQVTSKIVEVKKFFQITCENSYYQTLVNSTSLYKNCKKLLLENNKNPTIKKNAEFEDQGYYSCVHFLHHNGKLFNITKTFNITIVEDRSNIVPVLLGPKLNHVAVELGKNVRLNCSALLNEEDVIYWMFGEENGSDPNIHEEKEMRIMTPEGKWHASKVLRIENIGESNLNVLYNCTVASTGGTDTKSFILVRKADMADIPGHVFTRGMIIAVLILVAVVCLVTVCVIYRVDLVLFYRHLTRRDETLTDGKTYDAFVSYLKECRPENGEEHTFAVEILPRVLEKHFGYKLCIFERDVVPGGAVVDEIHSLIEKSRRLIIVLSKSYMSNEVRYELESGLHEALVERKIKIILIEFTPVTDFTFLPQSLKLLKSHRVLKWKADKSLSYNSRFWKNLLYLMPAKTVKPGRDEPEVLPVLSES
T4 sequence (looked up) 2: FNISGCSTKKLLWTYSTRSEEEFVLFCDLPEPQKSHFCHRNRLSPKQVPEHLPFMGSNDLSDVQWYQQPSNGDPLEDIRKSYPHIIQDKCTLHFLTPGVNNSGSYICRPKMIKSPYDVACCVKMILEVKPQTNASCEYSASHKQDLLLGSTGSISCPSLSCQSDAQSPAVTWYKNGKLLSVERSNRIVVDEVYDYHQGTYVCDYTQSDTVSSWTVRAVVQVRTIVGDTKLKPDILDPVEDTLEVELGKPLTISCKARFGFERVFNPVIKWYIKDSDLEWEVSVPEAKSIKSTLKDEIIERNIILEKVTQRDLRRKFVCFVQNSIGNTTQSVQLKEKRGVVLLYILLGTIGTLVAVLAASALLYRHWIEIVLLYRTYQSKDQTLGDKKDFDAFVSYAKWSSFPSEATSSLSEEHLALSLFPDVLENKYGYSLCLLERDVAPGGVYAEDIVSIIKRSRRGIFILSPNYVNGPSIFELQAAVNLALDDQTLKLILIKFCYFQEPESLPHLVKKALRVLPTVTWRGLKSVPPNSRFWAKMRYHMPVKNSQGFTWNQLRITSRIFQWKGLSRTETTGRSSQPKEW

[5] = molecular target: T2, human IL-18 binding protein (IL-18BP); experiment: cell-based or functional assay
[6] = molecular target: T4, IL-18 receptors on HEK-Blue IL-18 …; experiment: cell-based or functional assay; remark: listed apart in the source
[7] = molecular target: T2, human IL-18 binding protein (IL-18BP); experiment: cell-based or functional assay; remark: listed apart in the source
[8] = molecular target: T2, human IL-18 binding protein (IL-18BP); experiment: Octet BLI; remark: listed apart in the source
Method: as §1
Select G3/K53-substitution containing IL-18 variants and select G3/K53/N91-substitution containing TL-18 variants were tested for activity in the HEK-blue activity assay and for binding affinity to IL-18BP. As shown in the data of Table 15 and Table 16 below, each variant had similar or better activity than WT IL-18, and retained substantial activity in the presence of IL-18BP.

[9] = molecular target: T5, IL-18 receptor (IL-18Rα and IL-18Rβ) (UniProt Q13478 19-541; O95256 20-599, limits assumed); experiment: cell-based or functional assay
T5 sequence (looked up) 1: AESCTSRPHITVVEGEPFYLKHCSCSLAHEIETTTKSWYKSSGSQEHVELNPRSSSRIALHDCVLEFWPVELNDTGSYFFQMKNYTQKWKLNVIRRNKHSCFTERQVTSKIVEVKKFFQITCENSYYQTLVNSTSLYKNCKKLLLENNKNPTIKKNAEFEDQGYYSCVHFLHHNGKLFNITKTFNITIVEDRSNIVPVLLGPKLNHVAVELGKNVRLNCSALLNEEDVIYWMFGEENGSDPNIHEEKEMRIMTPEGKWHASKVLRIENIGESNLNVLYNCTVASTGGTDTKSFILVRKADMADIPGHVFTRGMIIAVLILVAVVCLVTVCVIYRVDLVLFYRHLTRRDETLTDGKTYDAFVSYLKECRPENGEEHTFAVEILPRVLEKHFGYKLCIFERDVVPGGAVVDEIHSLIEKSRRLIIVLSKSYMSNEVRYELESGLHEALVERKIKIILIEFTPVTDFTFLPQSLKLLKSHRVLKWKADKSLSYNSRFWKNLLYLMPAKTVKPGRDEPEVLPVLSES
T5 sequence (looked up) 2: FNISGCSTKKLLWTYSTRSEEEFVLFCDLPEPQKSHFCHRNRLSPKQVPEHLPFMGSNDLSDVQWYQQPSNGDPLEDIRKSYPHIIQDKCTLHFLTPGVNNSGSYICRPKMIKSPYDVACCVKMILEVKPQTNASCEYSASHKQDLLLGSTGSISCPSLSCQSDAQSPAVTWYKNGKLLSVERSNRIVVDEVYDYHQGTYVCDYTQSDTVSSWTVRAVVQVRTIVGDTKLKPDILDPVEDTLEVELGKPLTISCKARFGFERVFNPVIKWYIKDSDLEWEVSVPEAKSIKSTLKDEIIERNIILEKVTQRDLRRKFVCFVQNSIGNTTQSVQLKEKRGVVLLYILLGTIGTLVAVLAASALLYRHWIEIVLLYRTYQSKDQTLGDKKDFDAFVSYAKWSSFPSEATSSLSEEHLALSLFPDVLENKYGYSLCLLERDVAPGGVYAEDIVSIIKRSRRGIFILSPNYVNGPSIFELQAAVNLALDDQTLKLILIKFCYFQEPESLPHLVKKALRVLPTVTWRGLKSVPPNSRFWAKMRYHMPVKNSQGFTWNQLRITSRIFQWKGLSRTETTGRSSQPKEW

[10] = molecular target: T4, IL-18 receptors on HEK-Blue IL-18 …; experiment: cell-based or functional assay; remark: listed apart in the source
[11] = molecular target: T2, human IL-18 binding protein (IL-18BP); experiment: cell-based or functional assay; remark: listed apart in the source

B1: IL-18 variant G3V, E6K, K53A (ligand)
chain: YFVKLKSKLSVIRNLNDQVLFIDQGNRPLFEDMTDSDMRDNAPRTIFIISMYADSQPRGMAVTISVKSEKISTLSSENKIISFKEMNPPDNIKDTKSDIIFFQRSVPGHDNKMQFESSSYEGYFLASEKERDLFKLILKKEDELGDRSIMFTVQNED
notes: also called G3V, K53A, E6K
- Kd [1]: 0.27 nM
- Kd [2]: 19 nM
- Kd [3]: 52 nM
- HEK-Blue Activity Assay Ec50 (pM), -hu IL-18BP [4]: 0.02 pM
- HEK-Blue Activity Assay Ec50 (pM), +300 nM hu IL-18BP [5]: 1.71 pM
- HEK-Blue EC50 pM, NO BP (50 nM BP run) [6]: 0.04 pM
- HEK-Blue EC50 pM, NO BP (300 nM BP run) [6]: 0.02 pM
- Fold Change (BP/NO BP), 50 nM BP [7]: 8.67 fold
- Fold Change (BP/NO BP), 300 nM BP [7]: 74.8 fold
- HEK-Blue EC50 pM, +50 nM BP [7]: 0.33 pM
- HEK-blue EC50 (pM) + 300 nM BP [7]: 1.71 pM

B2: IL-18 variant G3R, N91M, K53S (ligand)
chain: YFRKLESKLSVIRNLNDQVLFIDQGNRPLFEDMTDSDMRDNAPRTIFIISMYSDSQPRGMAVTISVKSEKISTLSSENKIISFKEMNPPDMIKDTKSDIIFFQRSVPGHDNKMQFESSSYEGYFLASEKERDLFKLILKKEDELGDRSIMFTVQNED
notes: also called G3R/K53S/N91M
- Kd [8]: 3.3 nM
- koff [8]: 0.000735 s⁻¹
- kon [8]: 223000 M⁻¹ s⁻¹
- EC50 pM, IFN gamma expression in PBMCs [9]: 73.9 pM
- HEK-Blue Ec50 (pM), -IL-18BP [10]: 0.12 pM
- HEK-Blue Ec50 (pM), +IL-18BP (50 nM) [11]: 2.16 pM

B3: IL-18 variant G3T, E6K, K53A (ligand)
chain: YFTKLKSKLSVIRNLNDQVLFIDQGNRPLFEDMTDSDMRDNAPRTIFIISMYADSQPRGMAVTISVKSEKISTLSSENKIISFKEMNPPDNIKDTKSDIIFFQRSVPGHDNKMQFESSSYEGYFLASEKERDLFKLILKKEDELGDRSIMFTVQNED
notes: also called G3T, K53A, E6K
- Kd [1]: 0.32 nM
- Kd [2]: 6 nM
- Kd [3]: 10 nM
- HEK-Blue Activity Assay Ec50 (pM), -hu IL-18BP [4]: 0.04 pM
- HEK-Blue Activity Assay Ec50 (pM), +300 nM hu IL-18BP [5]: 1.49 pM
- HEK-Blue EC50 pM, NO BP (50 nM BP run) [6]: 0.05 pM
- HEK-Blue EC50 pM, NO BP (300 nM BP run) [6]: 0.04 pM
- Fold Change (BP/NO BP), 50 nM BP [7]: 2.79 fold
- Fold Change (BP/NO BP), 300 nM BP [7]: 35.2 fold
- HEK-Blue EC50 pM, +50 nM BP [7]: 0.14 pM
- HEK-blue EC50 (pM) + 300 nM BP [7]: 1.49 pM

B4: IL-18 variant G3R, N91W, K53A (ligand)
chain: YFRKLESKLSVIRNLNDQVLFIDQGNRPLFEDMTDSDMRDNAPRTIFIISMYADSQPRGMAVTISVKSEKISTLSSENKIISFKEMNPPDWIKDTKSDIIFFQRSVPGHDNKMQFESSSYEGYFLASEKERDLFKLILKKEDELGDRSIMFTVQNED
notes: also called G3R/K53A/N91W
- Kd [8]: 1 nM
- koff [8]: 0.000185 s⁻¹
- kon [8]: 185000 M⁻¹ s⁻¹
- EC50 pM, IFN gamma expression in PBMCs [9]: 49.8 pM
- HEK-Blue Ec50 (pM), -IL-18BP [10]: 0.04 pM
- HEK-Blue Ec50 (pM), +IL-18BP (50 nM) [11]: 4.22 pM
